Measurements taken from paper PMC2364164.

Biological target: recombinant fusion protein of MVP and glutathione-S-transferase (GST-MVP) (human) (UniProt Q14764)
Experiment: SPR; BIAcore 2000; GST-MVP immobilised on CM-5 sensorchip (2000 resonance units); soluble Fab flowed at 25 μl per minute, room temperature, HBS-EP (0.01 M HEPES pH 7.4, 0.15 M NaCl, 3 mM EDTA, 0.005% polysorbate 20); dissociation rates only

UniProt Q14764, sequence (Q14764 whole entry, the tested form may be a part): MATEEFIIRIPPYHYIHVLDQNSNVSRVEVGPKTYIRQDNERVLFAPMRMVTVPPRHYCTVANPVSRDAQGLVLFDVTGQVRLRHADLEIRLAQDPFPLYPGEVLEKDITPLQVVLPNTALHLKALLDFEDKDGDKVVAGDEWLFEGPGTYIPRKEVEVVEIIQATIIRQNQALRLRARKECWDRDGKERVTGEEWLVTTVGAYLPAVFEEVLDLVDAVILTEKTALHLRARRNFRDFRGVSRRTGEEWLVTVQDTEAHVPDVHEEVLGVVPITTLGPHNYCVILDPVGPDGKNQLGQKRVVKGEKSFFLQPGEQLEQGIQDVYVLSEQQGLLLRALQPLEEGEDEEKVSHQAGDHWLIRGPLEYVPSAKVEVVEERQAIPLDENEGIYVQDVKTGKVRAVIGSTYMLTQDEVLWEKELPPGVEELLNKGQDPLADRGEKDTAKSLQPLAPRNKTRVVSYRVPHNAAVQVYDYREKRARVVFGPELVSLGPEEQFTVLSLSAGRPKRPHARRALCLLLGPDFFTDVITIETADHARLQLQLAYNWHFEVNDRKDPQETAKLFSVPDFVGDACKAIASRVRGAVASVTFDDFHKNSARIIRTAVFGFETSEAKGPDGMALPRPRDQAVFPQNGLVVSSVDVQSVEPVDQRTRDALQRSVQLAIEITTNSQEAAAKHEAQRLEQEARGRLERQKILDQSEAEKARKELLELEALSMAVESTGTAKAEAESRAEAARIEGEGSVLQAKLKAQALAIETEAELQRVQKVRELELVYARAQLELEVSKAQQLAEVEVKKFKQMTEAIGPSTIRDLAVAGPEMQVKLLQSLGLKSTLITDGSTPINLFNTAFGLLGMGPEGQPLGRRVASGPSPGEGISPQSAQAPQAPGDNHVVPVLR

koff: 0.0013 s⁻¹
B1: MVP-φ4 human Fab fragment (soluble) (Fab, V domains shown)
VH: QLQLQESGPGLVKPSETLSLTCSVSGGSISSGGYYWSWIRQRPGKGLEWIGYIYYSGSTTYNPSLKSRVTMSVDTSKNQFSLKLSSVTAADTAFYYCARQGVYYYYGMDVWGQGTTVTVSS
VL: NFMLTQPHSVSESPGKTITISCTRSSGSIGSNYVYWYQQRPDSSPTIVIYADNERPSGVPGRFSGSIDSSSNSASLTISGLRAEDEADYYCQSYSNNKWIFGGGTKVTVL
